Source: PMC5839545
One block for each substance: values may come before it.

Legend:
[1] = biological target: mCherry-(s)-CENP-N (human) (UniProt Q96H22); test: dual color fluorescence cross-correlation spectroscopy (DC-FCCS); EGFP and mCherry fusion proteins co-expressed in living interphase HEp-2 or U2OS cells; spots in the nucleoplasm free of kinetochores, focal volume bleached before; 37°C; 488 and 561 nm; corrected values are the measured ones times about two
[2] = biological target: Spc24/Spc25 137-197+129-224 (Homo sapiens) (UniProt Q8NBT2); details: cited from earlier work
[3] = biological target: mCherry-(s)-CENP-I (human) (UniProt Q92674); test: dual color fluorescence cross-correlation spectroscopy (DC-FCCS); EGFP and mCherry fusion proteins co-expressed in living interphase HEp-2 or U2OS cells; spots in the nucleoplasm free of kinetochores, focal volume bleached before; 37°C; 488 and 561 nm; corrected values are the measured ones times about two
[4] = biological target: mCherry-(s)-CENP-K (human) (UniProt Q9BS16); test: as above
[5] = biological target: CENP-I-(s)-mCherry (human) (UniProt Q92674); test: as above
Sequence of CENP-I-(s)-mCherry (human) (Q92674 whole entry): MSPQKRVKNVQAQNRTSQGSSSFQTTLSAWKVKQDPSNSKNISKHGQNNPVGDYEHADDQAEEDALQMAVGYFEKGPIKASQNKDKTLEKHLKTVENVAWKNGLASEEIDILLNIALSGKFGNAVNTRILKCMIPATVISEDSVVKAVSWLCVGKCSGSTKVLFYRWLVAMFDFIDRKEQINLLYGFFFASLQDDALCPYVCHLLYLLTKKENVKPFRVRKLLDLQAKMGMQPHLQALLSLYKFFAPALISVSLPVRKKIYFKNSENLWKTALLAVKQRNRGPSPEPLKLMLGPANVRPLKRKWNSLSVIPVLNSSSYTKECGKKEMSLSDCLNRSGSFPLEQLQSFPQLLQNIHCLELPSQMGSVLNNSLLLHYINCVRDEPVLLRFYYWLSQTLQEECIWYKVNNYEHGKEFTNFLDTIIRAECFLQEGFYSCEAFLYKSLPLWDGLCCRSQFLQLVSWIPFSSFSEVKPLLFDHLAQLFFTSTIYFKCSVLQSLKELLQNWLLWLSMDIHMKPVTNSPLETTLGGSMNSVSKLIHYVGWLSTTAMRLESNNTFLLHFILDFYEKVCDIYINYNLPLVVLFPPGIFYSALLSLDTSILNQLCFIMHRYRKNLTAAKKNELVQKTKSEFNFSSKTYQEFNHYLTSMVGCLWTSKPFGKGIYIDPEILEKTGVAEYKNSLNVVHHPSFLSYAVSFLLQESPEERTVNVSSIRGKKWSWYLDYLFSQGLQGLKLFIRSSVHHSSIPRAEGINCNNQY

Sequence of EGFP-(l)-CENP-M (Q9NSP4 whole entry): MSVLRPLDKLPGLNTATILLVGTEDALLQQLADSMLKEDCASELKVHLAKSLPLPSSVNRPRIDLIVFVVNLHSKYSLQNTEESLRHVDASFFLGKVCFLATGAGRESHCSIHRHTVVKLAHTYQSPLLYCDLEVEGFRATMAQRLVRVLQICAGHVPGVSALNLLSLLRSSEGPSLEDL
Sequence of mCherry-(s)-CENP-K (human) (Q9BS16 whole entry): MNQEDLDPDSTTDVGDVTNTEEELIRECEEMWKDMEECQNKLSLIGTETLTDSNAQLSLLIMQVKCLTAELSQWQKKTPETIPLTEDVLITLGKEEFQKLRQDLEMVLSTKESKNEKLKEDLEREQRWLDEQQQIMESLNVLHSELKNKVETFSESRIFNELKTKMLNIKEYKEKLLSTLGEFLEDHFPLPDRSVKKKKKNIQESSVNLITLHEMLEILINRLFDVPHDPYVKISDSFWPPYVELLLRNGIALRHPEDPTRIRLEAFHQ
Sequence of mCherry-(s)-CENP-N (human) (Q96H22 whole entry, the tested form may be a part): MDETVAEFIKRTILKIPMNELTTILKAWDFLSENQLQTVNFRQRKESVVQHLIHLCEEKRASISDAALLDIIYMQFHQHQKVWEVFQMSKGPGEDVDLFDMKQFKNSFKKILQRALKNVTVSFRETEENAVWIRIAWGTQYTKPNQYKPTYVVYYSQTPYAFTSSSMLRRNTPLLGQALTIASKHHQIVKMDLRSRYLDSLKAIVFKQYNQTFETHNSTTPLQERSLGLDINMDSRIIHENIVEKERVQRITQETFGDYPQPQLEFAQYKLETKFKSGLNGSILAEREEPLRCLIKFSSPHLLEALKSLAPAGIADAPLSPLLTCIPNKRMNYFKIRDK
Sequence of mCherry-(s)-CENP-I (human) (Q92674 whole entry, the tested form may be a part): as the sequence (Q92674 whole entry) above
Sequence of EGFP-(l)-CENP-L (Q8N0S6 whole entry): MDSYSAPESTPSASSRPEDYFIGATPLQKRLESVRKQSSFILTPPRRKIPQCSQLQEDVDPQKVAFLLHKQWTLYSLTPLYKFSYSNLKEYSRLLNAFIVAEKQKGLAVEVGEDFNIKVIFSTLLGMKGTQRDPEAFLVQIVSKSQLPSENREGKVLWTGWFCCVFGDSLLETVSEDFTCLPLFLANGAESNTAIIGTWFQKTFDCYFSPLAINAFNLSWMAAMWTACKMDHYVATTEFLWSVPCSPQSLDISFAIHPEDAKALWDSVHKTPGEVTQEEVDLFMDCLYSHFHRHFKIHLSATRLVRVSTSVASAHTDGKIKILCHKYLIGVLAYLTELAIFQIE
Sequence of CENP-T 76-106 (Q96BT3 76-106): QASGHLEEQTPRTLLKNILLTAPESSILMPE
Sequence of Spc24/Spc25 137-197+129-224 (Homo sapiens) (Q8NBT2 whole entry, chain 1 of 2, the tested form may be a part): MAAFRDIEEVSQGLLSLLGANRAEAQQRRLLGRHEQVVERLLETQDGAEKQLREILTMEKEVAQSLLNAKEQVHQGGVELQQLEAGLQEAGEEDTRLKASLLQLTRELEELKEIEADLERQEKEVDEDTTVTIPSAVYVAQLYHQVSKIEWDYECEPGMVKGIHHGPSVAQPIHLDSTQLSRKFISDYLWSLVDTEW
Sequence of Spc24/Spc25 137-197+129-224 (Homo sapiens) (Q9HBM1 whole entry, chain 2 of 2, further chain, the tested form may be a part): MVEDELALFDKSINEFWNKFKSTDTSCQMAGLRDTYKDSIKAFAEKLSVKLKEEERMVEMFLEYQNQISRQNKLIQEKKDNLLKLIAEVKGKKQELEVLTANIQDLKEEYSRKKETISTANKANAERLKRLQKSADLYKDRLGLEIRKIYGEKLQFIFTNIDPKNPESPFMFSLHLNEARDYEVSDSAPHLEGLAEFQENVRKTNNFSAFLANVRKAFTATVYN

Substance: CENP-K-(s)-EGFP (from UniProt Q9BS16 1-269) (natural protein)
cross-correlation, measured (%) [1]: 26%

Substance: CENP-T 76-106 (from UniProt Q96BT3)
Kd [2]: 645 nM

Substance: EGFP-(l)-CENP-M (from UniProt Q9NSP4 1-180) (natural protein)
cross-correlation, measured (%) [3]: 24% | co-migration in one cell (%) [4]: 49% | cross-correlation, corrected (%) [4]: 56 to 92% | cross-correlation, measured (%) [4]: 37%

Substance: EGFP-(s)-CENP-K (from UniProt Q9BS16 1-269) (natural protein)
cross-correlation, measured (%) [3]: 20%

Next, values leading:

cross-correlation, measured (%) [1]: 23%
Substance: EGFP-(l)-CENP-L (from UniProt Q8N0S6 1-344) (natural protein; other documents disagree on this pair)

cross-correlation, measured (%) [5]: 22%
Substance: EGFP-(s)-CENP-H (from UniProt Q9H3R5 1-247) (natural protein)
